# Laboratory results from PMC8977143, “PDIA3/ERp57 promotes a matrix-rich secretome that stimulates fibroblast adhesion through CCN2” (American Journal of Physiology - Cell Physiology, 2022).
# Molecular target: T1, Native human platelet thrombospondin-1 (human, UniProt P07996 19-1170)
# T1 construct: thrombospondin-1 (TSP1), human, native protein from platelets; also called TSP1; native human TSP1; source: bought: Cell Sciences Inc. (Cat. No. CSL19832A), native from human platelets
# Assay: ELISA; solid-phase binding: PDIA3/ERp57 or CCN2 coated at various concentrations on Immulon 2Hb wells in TBS with 2 mM CaCl2 and 15 µM ZnSO4, 16 h at 4°C; blocked with 5% BSA; 50 µg/mL (388 µM as printed) native human TSP1 added for 1 h at room temperature; detected with anti-TSP1 (C9) and anti-mouse-IgG-HRP, absorbance at 450 nm
# Conditions: both partners purified
# T1 sequence (P07996 19-1170): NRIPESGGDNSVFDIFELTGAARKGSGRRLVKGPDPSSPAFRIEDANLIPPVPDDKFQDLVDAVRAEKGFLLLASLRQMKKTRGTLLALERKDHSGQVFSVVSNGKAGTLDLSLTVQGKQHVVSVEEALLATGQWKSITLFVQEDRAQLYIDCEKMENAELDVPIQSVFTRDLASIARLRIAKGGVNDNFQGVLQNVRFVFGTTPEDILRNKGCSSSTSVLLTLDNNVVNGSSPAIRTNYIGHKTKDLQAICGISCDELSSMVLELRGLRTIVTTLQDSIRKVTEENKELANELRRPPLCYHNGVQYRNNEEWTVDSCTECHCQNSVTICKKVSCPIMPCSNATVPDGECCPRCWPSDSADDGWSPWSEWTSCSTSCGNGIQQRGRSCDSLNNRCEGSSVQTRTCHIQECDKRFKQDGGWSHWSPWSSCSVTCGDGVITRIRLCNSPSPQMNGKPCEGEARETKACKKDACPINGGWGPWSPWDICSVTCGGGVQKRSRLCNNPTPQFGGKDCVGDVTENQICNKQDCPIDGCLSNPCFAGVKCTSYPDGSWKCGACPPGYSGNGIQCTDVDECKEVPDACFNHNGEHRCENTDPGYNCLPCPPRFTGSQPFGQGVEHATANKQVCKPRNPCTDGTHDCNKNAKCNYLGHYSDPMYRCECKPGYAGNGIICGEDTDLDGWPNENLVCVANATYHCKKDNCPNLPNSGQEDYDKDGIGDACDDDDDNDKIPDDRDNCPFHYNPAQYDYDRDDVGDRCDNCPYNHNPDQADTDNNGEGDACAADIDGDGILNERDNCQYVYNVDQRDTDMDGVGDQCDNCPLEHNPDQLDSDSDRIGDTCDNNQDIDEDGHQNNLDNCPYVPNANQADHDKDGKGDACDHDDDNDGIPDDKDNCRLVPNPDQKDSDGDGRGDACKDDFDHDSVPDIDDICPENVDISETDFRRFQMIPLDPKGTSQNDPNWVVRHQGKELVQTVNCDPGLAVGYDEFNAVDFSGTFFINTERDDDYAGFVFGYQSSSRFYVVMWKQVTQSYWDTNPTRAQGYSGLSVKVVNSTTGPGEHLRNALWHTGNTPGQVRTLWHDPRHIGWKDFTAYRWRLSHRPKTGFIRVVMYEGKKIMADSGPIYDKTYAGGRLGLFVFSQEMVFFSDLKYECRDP
row,binding result,Binder
1,binds,"Recombinant human PDIA3/ERp57 (enzyme, UniProt P30101 25-505, looked up, protein disulfide isomerase A3 (PDIA3/ERp57), human, recombinant; Limits, host and tags are told only by the supplier's data sheet; source: bought: Abcam (Cat. No. ab92937)) SDVLELTDDNFESRISDTGSAGLMLVEFFAPWCGHCKRLAPEYEAAATRLKGIVPLAKVDCTANTNTCNKYGVSGYPTLKIFRDGEEAGAYDGPRTADGIVSHLKKQAGPASVPLRTEEEFKKFISDKDASIVGFFDDSFSEAHSEFLKAASNLRDNYRFAHTNVESLVNEYDDNGEGIILFRPSHLTNKFEDKTVAYTEQKMTSGKIKKFIQENIFGICPHMTEDNKDLIQGKDLLIAYYDVDYEKNAKGSNYWRNRVMMVAKKFLDAGHKLNFAVASRKTFSHELSDFGLESTAGEIPVVAIRTAKGEKFVMQEEFSRDGKALERFLQDYFDGNLKRYLKSEPIPESNDGPVKVVVAENFDEIVNNENKDVLIEFYAPWCGHCKNLEPKYKELGEKLSKDPNIVIAKMDATANDVPSPYEVRGFPTIYFSPANKKLNPKKYEGGRELSDFISYLQREATNPPVIQEEKPKKKKKAQEDL"
2,binds,"Recombinant human CCN2 (natural protein, UniProt P29279 27-349, looked up, cell communication network 2 (CCN2/CTGF), human, recombinant; Limits, host and tags are told only by the supplier's data sheet; also called cell communication network 2; CTGF; source: bought: R&D (Cat. No. 9190-CC-050)) QNCSGPCRCPDEPAPRCPAGVSLVLDGCGCCRVCAKQLGELCTERDPCDPHKGLFCHFGSPANRKIGVCTAKDGAPCIFGGTVYRSGESFQSSCKYQCTCLDGAVGCMPLCSMDVRLPSPDCPFPRRVKLPGKCCEEWVCDEPKDQTVVGPALAAYRLEDTFGPDPTMIRANCLVQTTEWSACSKTCGMGISTRVTNDNASCRLEKQSRLCMVRPCEADLEENIKKGKKCIRTPKISKPIKFELSGCTSMKTYRAKFCGVCTDGRCCTPHRTTTLPVEFKCPDGEVMKKNMMFIKTCACHYNCPGDNDIFESLYYRKMYGDMA"
